Measurements taken from US20190062386A1 (UNIVERSITY OF NORTH CAROLINA AT CHAPEL HILL, published 2019).

Molecular target: T1, Myc tagged TRPC3 (UniProt Q13507-3 1-848, limits assumed)
T1 construct: Expressed in HEK293T cells and tested in cell lysates; also called Myc-TRPC3
T1 sequence (looked up): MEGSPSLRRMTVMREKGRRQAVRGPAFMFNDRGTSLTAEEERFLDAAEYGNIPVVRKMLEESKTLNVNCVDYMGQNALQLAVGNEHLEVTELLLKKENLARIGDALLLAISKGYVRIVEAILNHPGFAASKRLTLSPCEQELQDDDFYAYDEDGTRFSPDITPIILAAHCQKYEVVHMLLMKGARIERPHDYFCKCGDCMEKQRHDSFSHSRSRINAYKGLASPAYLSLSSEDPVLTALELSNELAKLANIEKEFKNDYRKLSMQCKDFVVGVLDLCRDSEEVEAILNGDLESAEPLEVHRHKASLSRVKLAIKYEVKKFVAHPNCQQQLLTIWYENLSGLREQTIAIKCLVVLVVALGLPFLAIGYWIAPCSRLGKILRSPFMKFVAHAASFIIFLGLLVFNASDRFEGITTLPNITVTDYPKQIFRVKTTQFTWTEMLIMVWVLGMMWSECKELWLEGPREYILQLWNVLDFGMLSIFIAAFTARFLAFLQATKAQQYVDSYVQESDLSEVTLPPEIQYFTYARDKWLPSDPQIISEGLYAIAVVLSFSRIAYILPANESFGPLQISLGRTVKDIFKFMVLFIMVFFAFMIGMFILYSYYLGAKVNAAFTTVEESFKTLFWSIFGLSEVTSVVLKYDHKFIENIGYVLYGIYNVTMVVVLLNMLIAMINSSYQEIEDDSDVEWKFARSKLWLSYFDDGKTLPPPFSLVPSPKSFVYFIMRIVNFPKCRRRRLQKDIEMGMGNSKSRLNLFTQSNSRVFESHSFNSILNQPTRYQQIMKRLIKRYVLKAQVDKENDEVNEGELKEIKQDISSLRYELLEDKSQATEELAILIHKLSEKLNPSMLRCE
Test: co-immunoprecipitation from lysates of HEK293T cells cotransfected with V5-SPLUNC1 and Myc-TRPC3
Procedure: Immunoprecipitation analysis was performed using cell lysates from HEK293T cells cotransfected with V5-SPLUNC1 and Myc-TRPC3. Data represents an n=3 blots.
Antibodies, immunoprecipitation, and immunoblot analysis: Rabbit anti-Orai1, anti-HA epitope (Santa Cruz), anti-GFP, anti-phospho-myosin light chain, anti-total myosin light chain, anti-GAPDH (glyceraldehyde-3-phosphate dehydrogenase) (Cell Signaling Technology); mouse anti-V5 epitope (Life Technologies), were purchased from commercial sources. To detect protein expression in total cell lysates, cells were lysed in Pierce® IP lysis buffer with 25 mM Tris-HCl pH 7.4, 150 mM NaCl, 1% NP-40, 1 mM EDTA, 5% glycerol, followed by SDS-polyacrylamide electrophoresis and immunoblot.

binding result: no binding
B1: V5-SPLUNC1 (other, not shown: small tags and cut ends)
chain: QFGGLPVPLDQTLPLNVNPALPLSPTGLAGSLTNALSNGLLSGGLLGILENLPLLDILKPGGGTSGGLLGGLLGKVTSVIPGLNNIIDIKVTDPQLLELGLVQSPDGHRLYVTIPLGIKLQVNTPLVGASLLRLAVKLDITAEILAVRDKQERIHLVLGDCTHSPGSLQISLLDGLGPLPIQGLLDSLTGILNKVLPELVQGNVCPLVNEVLRGLDITLVHDIVNMLIHGLQFVIKV
notes: Expressed in HEK293T cells and tested in cell lysates; The tag is placed first only because the name is printed that way; also called pcDNA3.1(+)-V5-SPLUNC1
